Measurements as given in patent US20080069777A1.

Key:
[1] = target: whole LFA-1 in which the α subunit contains an I-domain in the low affinity locked closed state, on cells (LA cells) (human) (UniProt P05107); experiment: phage ELISA, LA form of LFA-1, with Mg2+
[2] = target: whole LFA-1 in which the α subunit contains an I-domain in the low affinity locked closed state, on cells (LA cells) (human) (UniProt P05107); experiment: phage ELISA, LA form of LFA-1, without Mg2+
[3] = target: human wild-type LFA-1 on cells (human) (UniProt P20701); experiment: inhibition of ICAM binding to human PBMCs; average of four experiments
human wild-type LFA-1 on cells (human), sequence (P20701 other isoform, or with tags, fused parts or gaps limits assumed, chain 1 of 2): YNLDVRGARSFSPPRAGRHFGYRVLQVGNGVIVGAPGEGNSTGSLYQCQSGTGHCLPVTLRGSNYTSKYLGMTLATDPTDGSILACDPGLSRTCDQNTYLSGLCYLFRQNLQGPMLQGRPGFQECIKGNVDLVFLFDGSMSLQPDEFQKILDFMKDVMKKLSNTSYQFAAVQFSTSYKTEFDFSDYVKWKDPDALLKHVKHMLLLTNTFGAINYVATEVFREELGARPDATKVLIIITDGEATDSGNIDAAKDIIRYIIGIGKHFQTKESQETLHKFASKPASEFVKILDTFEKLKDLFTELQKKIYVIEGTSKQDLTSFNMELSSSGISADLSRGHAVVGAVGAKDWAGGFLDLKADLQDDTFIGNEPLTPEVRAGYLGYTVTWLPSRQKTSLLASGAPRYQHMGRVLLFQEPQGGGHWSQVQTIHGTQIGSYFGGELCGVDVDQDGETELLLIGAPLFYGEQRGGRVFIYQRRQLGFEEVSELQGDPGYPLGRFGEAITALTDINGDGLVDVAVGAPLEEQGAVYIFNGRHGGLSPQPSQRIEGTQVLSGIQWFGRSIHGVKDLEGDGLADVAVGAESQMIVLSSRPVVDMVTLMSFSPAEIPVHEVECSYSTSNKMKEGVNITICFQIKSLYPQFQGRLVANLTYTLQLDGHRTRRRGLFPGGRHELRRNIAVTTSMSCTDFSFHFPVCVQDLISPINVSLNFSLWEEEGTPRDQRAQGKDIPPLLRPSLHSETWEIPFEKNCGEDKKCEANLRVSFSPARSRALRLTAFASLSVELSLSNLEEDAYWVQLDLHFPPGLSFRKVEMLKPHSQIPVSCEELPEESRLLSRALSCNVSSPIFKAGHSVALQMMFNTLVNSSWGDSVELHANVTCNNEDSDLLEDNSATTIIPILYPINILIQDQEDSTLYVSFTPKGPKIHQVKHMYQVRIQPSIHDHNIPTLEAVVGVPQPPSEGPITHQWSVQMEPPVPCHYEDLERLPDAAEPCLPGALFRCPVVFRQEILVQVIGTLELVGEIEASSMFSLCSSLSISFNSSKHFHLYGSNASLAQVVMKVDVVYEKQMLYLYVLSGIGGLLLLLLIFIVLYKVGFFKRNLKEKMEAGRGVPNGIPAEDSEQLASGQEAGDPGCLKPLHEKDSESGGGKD
human wild-type LFA-1 on cells (human), sequence (chain, as listed by the source limits assumed, chain 2 of 2): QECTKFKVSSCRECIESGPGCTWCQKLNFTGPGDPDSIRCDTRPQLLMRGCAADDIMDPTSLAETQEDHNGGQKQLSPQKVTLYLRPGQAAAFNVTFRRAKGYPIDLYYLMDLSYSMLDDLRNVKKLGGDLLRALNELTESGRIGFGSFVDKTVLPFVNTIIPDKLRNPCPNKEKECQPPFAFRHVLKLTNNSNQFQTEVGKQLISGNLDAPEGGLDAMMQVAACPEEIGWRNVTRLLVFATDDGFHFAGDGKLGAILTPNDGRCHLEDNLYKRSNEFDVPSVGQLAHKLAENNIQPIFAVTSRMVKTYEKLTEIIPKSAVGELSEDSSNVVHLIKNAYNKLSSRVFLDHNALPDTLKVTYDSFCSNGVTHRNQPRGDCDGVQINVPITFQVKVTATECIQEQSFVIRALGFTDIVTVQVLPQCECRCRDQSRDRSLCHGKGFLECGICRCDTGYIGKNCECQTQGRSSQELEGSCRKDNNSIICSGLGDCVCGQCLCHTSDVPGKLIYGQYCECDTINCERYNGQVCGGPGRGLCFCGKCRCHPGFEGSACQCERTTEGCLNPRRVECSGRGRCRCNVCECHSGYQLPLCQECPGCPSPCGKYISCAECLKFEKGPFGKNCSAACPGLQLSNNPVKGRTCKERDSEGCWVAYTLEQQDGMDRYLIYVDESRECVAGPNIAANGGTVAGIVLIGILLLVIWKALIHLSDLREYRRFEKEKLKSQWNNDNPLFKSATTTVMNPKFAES

[4] = target: whole LFA-1 in which the α subunit contains an I-domain in the high affinity locked open state, on cells (HA cells) (human) (UniProt P05107); experiment: inhibition of ICAM binding to HA cells, Guava analysis; first experiment
[5] = target: whole LFA-1 in which the α subunit contains an I-domain in the high affinity locked open state, on cells (HA cells) (human) (UniProt P05107); experiment: inhibition of ICAM binding to HA cells, Guava analysis; third experiment
[6] = target: whole LFA-1 in which the α subunit contains an I-domain in the high affinity locked open state, on cells (HA cells) (human) (UniProt P05107); experiment: inhibition of ICAM binding to HA cells, Guava analysis; fourth experiment
[7] = target: whole LFA-1 in which the α subunit contains an I-domain in the high affinity locked open state, on cells (HA cells) (human) (UniProt P05107); experiment: inhibition of ICAM binding to HA cells, Guava analysis; second experiment

Substance | ELISA signal (arbitrary units) [1] | ELISA signal (arbitrary units) [2] | IC50 [3] | IC50 [4] | IC50 [5] | IC50 [6] | IC50 [7]
Control #1 (a phage that binds to a different target) | 0.13 | 0.07 |  |  |  |  | 
Control #2 (another protein that binds to a different target) | 0.14 | 0.07 |  |  |  |  | 
MHM24 IgG (antibody) |  |  | 330 pM | 240 pM | 590 pM | 2400 pM | 1800 pM
